Results as given in PMC11371828 (Nature Communications, 2024).

Legend:
Experiment in all cases: pull-down
[1] = biological target: T1, 6xHis-IKKβ(1-669) EE K469E (human, UniProt O14920 1-669, S177E | S181E | K469E)
T1 sequence (looked up): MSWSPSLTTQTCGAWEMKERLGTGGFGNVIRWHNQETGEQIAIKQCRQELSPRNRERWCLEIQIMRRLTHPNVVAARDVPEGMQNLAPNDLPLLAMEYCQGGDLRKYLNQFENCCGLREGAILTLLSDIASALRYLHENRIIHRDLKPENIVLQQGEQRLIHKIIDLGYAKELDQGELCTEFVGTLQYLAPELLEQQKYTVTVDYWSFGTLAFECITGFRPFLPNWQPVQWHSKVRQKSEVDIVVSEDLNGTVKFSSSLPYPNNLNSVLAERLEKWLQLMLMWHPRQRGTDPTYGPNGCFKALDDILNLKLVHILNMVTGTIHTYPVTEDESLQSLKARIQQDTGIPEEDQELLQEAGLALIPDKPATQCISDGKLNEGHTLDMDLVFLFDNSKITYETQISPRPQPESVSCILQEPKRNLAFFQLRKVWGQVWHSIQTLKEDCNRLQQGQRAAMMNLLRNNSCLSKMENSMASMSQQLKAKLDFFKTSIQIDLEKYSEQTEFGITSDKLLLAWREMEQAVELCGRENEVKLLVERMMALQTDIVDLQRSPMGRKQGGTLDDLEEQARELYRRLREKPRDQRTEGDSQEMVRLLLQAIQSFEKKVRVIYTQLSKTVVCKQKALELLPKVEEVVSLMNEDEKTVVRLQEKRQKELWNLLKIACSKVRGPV

[2] = biological target: T2, 6xHis-IKKβ(1-669) EE K480E (human, UniProt O14920 1-669, S177E | S181E | K480E)
T2 sequence (looked up): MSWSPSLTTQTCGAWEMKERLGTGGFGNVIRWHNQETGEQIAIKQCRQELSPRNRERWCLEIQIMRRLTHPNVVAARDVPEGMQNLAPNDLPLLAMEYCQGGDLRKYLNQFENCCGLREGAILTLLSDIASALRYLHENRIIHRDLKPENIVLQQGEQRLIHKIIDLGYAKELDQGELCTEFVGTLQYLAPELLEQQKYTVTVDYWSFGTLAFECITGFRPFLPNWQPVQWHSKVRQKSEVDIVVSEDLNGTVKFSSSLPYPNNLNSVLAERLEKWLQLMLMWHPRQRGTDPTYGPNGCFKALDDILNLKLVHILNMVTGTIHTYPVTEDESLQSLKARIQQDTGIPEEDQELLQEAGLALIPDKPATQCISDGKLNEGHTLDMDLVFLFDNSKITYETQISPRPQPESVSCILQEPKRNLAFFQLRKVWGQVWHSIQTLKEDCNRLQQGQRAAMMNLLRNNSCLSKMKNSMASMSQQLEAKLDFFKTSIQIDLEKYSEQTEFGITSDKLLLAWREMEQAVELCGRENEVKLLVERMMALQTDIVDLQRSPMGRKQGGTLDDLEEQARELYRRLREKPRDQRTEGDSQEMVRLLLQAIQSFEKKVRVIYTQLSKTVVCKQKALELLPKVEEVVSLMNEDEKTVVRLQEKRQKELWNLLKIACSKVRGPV

[3] = biological target: T3, 6xHis-IKKβ(1-669) EE M475A (human, UniProt O14920 1-669, S177E | S181E | M475A)
T3 sequence (looked up): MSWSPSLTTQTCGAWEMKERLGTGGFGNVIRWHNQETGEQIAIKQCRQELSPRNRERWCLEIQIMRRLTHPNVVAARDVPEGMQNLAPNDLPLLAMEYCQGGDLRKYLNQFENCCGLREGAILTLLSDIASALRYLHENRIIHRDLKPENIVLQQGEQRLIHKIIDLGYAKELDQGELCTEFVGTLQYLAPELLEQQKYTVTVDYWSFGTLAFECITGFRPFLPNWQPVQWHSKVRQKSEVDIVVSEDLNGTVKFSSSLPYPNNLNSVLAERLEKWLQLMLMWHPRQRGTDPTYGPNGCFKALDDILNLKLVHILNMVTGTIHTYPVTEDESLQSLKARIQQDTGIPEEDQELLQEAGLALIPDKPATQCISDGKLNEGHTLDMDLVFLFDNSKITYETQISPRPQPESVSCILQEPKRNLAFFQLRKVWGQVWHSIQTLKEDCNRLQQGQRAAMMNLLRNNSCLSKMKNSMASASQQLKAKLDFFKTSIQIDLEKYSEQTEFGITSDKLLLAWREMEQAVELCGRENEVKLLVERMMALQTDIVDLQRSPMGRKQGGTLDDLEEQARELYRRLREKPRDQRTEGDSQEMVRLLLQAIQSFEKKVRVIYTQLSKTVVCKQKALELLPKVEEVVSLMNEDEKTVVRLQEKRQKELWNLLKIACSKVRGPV

Measured: binding result

DELPYDDCVFGGQRLTL (peptide, UniProt P25963 301-317, looked up) [MBP-IκBα pep(s)]
binds: all assays above
